What was measured:
[1] = target: GST-tagged p300 CH1 domain (residues 330–420) (UniProt Q09472); assay: SEC; size exclusion chromatography of the GST fusion (protein characterization, Fig. S15)
[2] = target: T1, HIF-1α786-826/p300 complex (Homo sapiens, UniProt Q09472); assay: Competition ITC: CITED2 peptide titrated to preformed p300/HIF-1α786–826 complex; assay type: binding; conditions: titrated to HIF-1α786-826/p300 complex, fitted with fixed KD = 42.9 nM and ΔH = -25.8 kcal/mol for HIF-1α786-826, read-out: KD,app CITED2
T1 construct: GST (N, cleaved yes); made in house; host or cells: p300: E. coli BL21 pLysS (pGEX-4T1-p300); HIF-1α peptide: chemical synthesis
T1 sequence (Q09472 330-420, one chain of several): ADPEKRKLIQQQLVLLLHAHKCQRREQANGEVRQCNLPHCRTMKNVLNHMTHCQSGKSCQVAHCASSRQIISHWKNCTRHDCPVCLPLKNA
Protocol: Figure S7Apparent KD fits for the competition ITC experiment using a competition interaction model. p300/ligand complexes were prepared by titrating the appropriate ligand first to p300 in the cell using 3-5 µM protein concentration, the titration stopped when it reached close to […]
(Table S5) Then it was titrated with the competitor ligand using 30-60 µM concentration in the syringe, 5 or 10 uL injections with 180-240 s spacing. Background titrations were performed without p300 in the cell and subtracted from the measurements. Apparent KD,app and ΔH app values data were fitted to a competition model (Fig. S17) in SEDPHAT. Error bars represent the estimated integration errors.
(1 picture or pasted object on this page, not shown here) […]
instrument using 3-5 µM protein in the cell and 40-60 µM ligand in the syringe at 35°C, using 5 µl injections and 180 s spacing between injections, for 40 injections. […] Data were analysed using NITPIC3 and fitted using SEDPHAT4 to a single binding site model (fixed 1:1 stoichiometry), with baseline and incompetent protein fraction as adjustable parameters. 68 % confidence intervals for the fitted values were determined using the automatic confidence interval search implemented in SEDPHAT. […]

[3] = target: T2, p300 CH1 domain (residues 330–420) (UniProt Q09472 330-420); assay: ITC; competition: CITED2 peptides titrated into the preformed p300/HIF-1α 776–826 complex (1.2–1.6 equivalents of HIF-1α); 40 mM sodium phosphate, pH 7.5, 100 mM NaCl, 1 mM DTT, 35 °C; competitive binding model; apparent; conditions: both partners purified
T2 construct: p300 CH1 domain, residues 330–420; The cleavage of GST is said for the anisotropy control; also called p300 with the GST tag cleaved; source: recombinantly expressed as a fusion protein with GST, GST tag cleaved
T2 sequence (Q09472 330-420): as the sequence (Q09472 330-420, one chain of several) above

[4] = target: T2, p300 CH1 domain (residues 330–420); assay: ITC; peptide in the syringe, p300 in the cell (Fig. 4: 5 μM protein, 60 μM ligand); 40 mM sodium phosphate, pH 7.5, 100 mM NaCl, 1 mM DTT, 35 °C; single-site model, fixed 1:1 stoichiometry; conditions: both partners purified
[5] = target: T3, GST-p300 (GST-tagged p300 CH1 domain, residues 330-420) (human, UniProt Q09472 330-420); assay: fluorescence polarisation; fluorescence anisotropy competition; 5 nM FAM-HIF786-826 as tracer, two-fold dilution series of the competitor from 10 µM over 24 points; 25 mM Tris-HCl, 150 mM NaCl, 1 mM DTT, pH 7.4; concentration of p300 not stated; conditions: both partners purified
T3 construct: human p300, CH1 domain (zinc finger, TAZ type 1), residues 330-420; For the fluorescence anisotropy experiments the GST cleavage step was omitted (D1:p17); source: E. coli (pGEX-6P-2 in Rosetta 2 or pGEX-4T-1 in BL21 pLysS), glutathione beads, eluted with glutathione, SEC
T3 sequence (Q09472 330-420): as the sequence (Q09472 330-420, one chain of several) above

GST-tagged p300 CH1 domain (residues 330–420) (from UniProt Q09472 330-420) (domain or fragment)
stoichiometry N [1]: 2

Ac-DEEVLMSLVIEMGLDRIKELPELWLGQNEFDFMTDF-NH2 [CITED2_224–259]
Kd [2]: 8.4 nM

NVIDTDFIDEEVLMSLVIEMGLDRIKELPELWL (peptide, UniProt Q99967 216-248, looked up) [CITED2 216–248 (C-terminally truncated CITED2)]
KD,app (competition against the preformed p300/HIF-1α 776–826 complex) [3]: 46.9 nM
Kd [4]: 303 nM

B1: HIF-1α786-826 (expressed, His10-GFP cleaved off) (peptide)
peptide: GPGSSMDESGLPQLTSYDCEVNAPIQGSRNLLQGEELLRALDQVN
notes: four residues (Gly-Pro-Gly-Ser) left from the PreScission protease site; source: E. coli Rosetta 2, from inclusion bodies, His-trap, on-column PreScission cleavage, RP-HPLC; not shown: GFP, N-terminal, cleaved
IC50 [5]: 59 ± 6 nM

Source: article PMC9092470, “Understanding p300-transcription factor interactions using sequence variation and hybridization†” (RSC Chemical Biology, 2022)
